In patent publication US20230340151A1 (Pfizer, published 2023):

Assays:
Experiment in all cases: flow cytometry on cells displaying the construct
[1] = molecular target: T1, CID1876 (human-chicken GUCY2c chimera) (human/chicken)
T1 chain: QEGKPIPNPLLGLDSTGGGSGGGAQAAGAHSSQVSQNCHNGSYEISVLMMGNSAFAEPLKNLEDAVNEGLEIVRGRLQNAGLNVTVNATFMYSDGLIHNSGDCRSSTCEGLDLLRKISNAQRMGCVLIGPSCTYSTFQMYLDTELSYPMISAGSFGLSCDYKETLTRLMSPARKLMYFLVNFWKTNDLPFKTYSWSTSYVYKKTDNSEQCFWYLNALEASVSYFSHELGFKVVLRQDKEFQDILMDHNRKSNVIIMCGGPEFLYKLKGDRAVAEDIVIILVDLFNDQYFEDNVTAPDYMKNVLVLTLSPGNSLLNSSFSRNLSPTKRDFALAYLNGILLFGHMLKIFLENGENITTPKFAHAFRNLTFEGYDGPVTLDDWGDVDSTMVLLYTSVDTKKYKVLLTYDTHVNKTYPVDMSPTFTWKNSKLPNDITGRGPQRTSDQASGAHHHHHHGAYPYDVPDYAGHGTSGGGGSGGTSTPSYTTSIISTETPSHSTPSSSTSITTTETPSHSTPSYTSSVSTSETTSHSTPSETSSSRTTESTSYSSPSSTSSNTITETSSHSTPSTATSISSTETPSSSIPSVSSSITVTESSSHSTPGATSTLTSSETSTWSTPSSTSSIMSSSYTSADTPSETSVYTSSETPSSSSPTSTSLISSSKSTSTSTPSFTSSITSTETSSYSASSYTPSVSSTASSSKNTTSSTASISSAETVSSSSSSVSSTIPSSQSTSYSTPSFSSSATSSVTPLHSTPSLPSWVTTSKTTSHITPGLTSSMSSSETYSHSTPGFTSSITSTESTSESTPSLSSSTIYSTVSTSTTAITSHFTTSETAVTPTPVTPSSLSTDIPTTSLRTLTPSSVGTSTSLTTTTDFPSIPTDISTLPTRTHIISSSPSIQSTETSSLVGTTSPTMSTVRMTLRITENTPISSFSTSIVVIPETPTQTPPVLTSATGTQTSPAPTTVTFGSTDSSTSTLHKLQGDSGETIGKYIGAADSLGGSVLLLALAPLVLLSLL

[2] = molecular target: CID1944 (human GUCY2c point mutant) (human)
[3] = molecular target: T2, CID1880 (human-chicken GUCY2c chimera) (human/chicken)
T2 chain: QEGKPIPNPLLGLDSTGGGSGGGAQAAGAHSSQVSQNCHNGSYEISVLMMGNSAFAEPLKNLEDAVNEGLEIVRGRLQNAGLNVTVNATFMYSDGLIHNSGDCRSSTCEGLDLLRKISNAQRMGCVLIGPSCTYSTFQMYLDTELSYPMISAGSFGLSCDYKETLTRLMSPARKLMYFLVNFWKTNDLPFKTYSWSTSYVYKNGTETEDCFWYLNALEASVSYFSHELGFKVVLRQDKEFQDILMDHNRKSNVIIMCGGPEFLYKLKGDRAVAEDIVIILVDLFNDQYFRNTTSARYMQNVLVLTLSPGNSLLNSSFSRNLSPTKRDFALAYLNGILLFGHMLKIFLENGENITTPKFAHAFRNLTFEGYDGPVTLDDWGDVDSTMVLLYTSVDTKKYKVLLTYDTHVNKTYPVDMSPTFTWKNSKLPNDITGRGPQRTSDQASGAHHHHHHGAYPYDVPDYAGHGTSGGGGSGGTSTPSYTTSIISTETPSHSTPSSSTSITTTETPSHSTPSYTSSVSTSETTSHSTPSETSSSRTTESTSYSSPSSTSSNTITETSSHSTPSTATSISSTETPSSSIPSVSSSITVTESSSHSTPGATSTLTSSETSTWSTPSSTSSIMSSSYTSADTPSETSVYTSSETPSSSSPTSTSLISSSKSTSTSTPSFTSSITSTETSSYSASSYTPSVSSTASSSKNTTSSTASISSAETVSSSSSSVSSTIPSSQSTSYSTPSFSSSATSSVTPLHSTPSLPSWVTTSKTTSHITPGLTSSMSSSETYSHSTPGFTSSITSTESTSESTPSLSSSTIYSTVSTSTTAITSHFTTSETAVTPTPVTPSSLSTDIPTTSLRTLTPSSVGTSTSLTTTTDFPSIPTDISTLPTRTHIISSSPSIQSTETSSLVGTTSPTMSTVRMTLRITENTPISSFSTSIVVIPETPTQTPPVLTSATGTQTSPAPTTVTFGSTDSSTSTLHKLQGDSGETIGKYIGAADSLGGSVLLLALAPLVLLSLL

[4] = molecular target: T3, CID1940 (reverse chimera, chicken GUCY2c with human residues) (chicken/human)
T3 chain: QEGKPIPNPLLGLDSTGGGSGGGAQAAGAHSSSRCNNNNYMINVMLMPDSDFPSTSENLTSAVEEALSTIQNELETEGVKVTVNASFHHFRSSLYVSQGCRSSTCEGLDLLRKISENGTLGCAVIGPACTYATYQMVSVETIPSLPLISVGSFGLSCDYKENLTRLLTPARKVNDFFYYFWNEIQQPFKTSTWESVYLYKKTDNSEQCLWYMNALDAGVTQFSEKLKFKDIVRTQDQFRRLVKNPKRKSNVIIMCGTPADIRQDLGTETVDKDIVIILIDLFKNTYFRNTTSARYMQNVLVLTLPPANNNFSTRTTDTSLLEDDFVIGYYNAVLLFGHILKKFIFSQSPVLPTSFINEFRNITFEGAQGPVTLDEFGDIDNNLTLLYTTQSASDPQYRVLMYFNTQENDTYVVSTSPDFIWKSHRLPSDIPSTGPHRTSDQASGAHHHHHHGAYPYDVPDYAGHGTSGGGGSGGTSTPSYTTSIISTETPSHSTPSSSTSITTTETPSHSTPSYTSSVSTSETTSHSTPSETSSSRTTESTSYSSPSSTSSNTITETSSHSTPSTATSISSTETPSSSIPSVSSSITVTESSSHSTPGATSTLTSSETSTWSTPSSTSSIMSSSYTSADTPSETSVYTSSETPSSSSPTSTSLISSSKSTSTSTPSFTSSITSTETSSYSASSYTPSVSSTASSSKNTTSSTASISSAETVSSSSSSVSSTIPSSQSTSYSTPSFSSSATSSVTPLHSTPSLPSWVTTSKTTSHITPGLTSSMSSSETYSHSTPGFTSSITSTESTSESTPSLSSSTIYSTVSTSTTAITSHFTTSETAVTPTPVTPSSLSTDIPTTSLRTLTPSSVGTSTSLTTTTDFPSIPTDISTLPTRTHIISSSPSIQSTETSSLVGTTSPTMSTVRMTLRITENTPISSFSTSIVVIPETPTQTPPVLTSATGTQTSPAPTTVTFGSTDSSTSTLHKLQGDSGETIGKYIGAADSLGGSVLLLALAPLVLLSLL

Measured: binding result

B1: GUCY2C-1608 (bispecific antibody)
chain 1: DIQLTQSPSSLSASVGDRVTITCRASESVDYYGSSLLQWYQQKPGKAPKLLIYAASKLASGVPSRFSGSGSGTDFTLTISSLQPEDFATYYCQQTRKAYTFGQGTKLEIKGGGSGGGGEVQLVESGGGLVQPGGSLRLSCAASGFTFSDYYMTWVRQAPGKGLEWVAFIRNQARGYTSDHNPSVKGRFTISRDNAKNSLYLQMNSLRAEDTAVYYCARDRPSYYVLDYWGQGTTVTVSSGCPPCPAPEAAGAPSVFLFPPKPKDTLMISRTPEVTCVVVDVSHEDPEVKFNWYVDGVEVHNAKTKPREEQYNSTYRVVSVLTVLHQDWLNGKEYKCKVSNKALPAPIEKTISKAKGQPREPQVCTLPPSREEMTKNQVSLWCLVKGFYPSDIAVEWESNGQPENNYKTTPPVLDSDGSFFLYSKLTVDKSRWQQGNVFSCSVMHEALHNHYTQKSLSLSPG
chain 2: DIQMTQSPSSLSASVGDRVTITCTSSQSLFNVRSQKNYLAWYQQKPGKAPKLLIYWASTRESGVPSRFSGSGSGTDFTLTISSLQPEDFATYYCKQSYDLFTFGGGTKVEIKGGGGSGGGGEVQLVESGGGLVQPGGSLRLSCAASGFTFSSYWMHWVRQAPGKGLEWIGEIKPSNELTNVHEKFKDRFTISVDKAKNSAYLQMNSLRAEDTAVYYCTRTITTTEGYWFFDVWGQGTLVTVSSGCPPCPAPEAAGAPSVFLFPPKPKDTLMISRTPEVTCVVVDVSHEDPEVKFNWYVDGVEVHNAKTKPREEQYNSTYRVVSVLTVLHQDWLNGKEYKCKVSNKALPAPIEKTISKAKGQPREPQVYTLPPCREEMTKNQVSLSCAVKGFYPSDIAVEWESNGQPENNYKTTPPVLDSDGSFFLVSKLTVDKSRWQQGNVFSCSVMHEALHNHYTQKSLSLSPG
notes: also called GUCY2c CD3 bispecific
binds: all assays above
